Here are results for two molecules from article PMC5582868, “BLADE-ON-PETIOLE proteins act in an E3 ubiquitin ligase complex to regulate PHYTOCHROME INTERACTING FACTOR 4 abundance” (eLife, 2017).

For one assay, the target named is T1, His-GST-PIF4 (Arabidopsis thaliana (Mouse-ear cress), UniProt Q8W2F3).
T1 chain: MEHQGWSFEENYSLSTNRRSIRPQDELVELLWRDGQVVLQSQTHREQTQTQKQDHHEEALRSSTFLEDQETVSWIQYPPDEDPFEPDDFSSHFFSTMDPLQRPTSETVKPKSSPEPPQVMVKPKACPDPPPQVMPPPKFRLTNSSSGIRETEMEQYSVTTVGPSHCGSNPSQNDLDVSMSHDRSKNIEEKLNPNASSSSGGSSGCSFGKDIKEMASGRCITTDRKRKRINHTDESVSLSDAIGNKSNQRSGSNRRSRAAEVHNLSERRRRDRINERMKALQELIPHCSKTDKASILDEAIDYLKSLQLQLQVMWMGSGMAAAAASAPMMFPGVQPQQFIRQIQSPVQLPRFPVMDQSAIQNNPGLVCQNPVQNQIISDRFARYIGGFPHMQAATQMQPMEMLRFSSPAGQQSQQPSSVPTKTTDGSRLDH
As to the kind of experiment: GST pulldown.

The target in another assay is T2, His-MBP-BOP2 (Arabidopsis thaliana, UniProt Q9ZVC2 1-491).
T2 construct: BLADE-ON-PETIOLE 2 (BOP2), Arabidopsis thaliana; source: Escherichia coli BL21, purified (Ni-NTA Agarose)
T2 sequence (looked up): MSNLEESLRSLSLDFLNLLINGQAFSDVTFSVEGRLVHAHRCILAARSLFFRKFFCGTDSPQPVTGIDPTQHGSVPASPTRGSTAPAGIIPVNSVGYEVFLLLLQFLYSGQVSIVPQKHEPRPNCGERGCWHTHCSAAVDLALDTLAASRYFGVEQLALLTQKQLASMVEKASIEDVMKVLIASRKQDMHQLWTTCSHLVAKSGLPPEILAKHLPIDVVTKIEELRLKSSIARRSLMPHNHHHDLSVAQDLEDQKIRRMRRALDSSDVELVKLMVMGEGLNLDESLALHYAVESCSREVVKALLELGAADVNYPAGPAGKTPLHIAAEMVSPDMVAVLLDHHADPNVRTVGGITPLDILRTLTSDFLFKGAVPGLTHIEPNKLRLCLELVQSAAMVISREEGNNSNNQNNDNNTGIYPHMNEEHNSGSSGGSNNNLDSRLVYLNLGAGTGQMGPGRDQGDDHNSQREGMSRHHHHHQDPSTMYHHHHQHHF
As to the kind of experiment: pull-down; 1 µg GST-PIF4 on Glutathione Sepharose 4B beads; 1 µg MBP or MBP-BOP2 added in 300 µl binding buffer (50 mM Tris-Cl pH 7.6, 100 mM NaCl, 1 mM EDTA, 1% Triton X-100, 0.5 mM DTT, 5% glycerol), 4°C, 2 hr; blot with anti-MBP. As to conditions: both partners purified.

B1: His-MBP-BOP2 (protein)
chain: T2 sequence (looked up)
Turning to B1, the binding result in the assay with His-GST-PIF4 is reported as “binds”.

B2: His-GST-PIF4 (natural protein, Arabidopsis thaliana, UniProt Q8W2F3 1-430, looked up)
chain: T1 chain
notes: also called glutathione S-transferase (GST) tagged PIF4; source: Escherichia coli BL21, purified (Ni-NTA Agarose)
On to B2, for which, in the assay with His-MBP-BOP2, the binding result is recorded as “binds”.
